Results from the supplement of paper PMC7125110.
± gives the standard error. For some of these results: This sample holds only a part of the variants without activity.

B1: glmS ribozyme (parent)
chain: AUAAAAGCGCCAGAACUACAGAAAUGUAGUUGACGAGGAGGAGGUUUAUCGAAUUUUCGGCGGAUGCCUCCAAA

Tests used:
Settings in all cases: with glucosamine-6-phosphate
glucosamine-6-phosphate [1] = variants of: B1; assay: kcat; higher = faster cleavage; RNA array
In short: (§1)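 Glucosamine-6-phosphate, from 40 μM to 10 mM in HEPES/KCl/Mg(OAc)2 buffer, was flowed over sequenced MiSeq chips carrying barcoded ribozyme variants transcribed in situ by E. coli RNA polymerase. A hybridised Cy3 probe tracked the variants at 37 °C as tiles were imaged over ~14 h. kobs, kcat and KM were obtained by fitting normalised per-tile medians to exponential decays and then applying weighted Michaelis–Menten fits across concentrations.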

glucosamine-6-phosphate [2] = variants of: B1; assay: KM; higher = weaker cofactor use; RNA array
In short: as §1

glucosamine-6-phosphate [3] = variants of: B1; assay: self-cleavage kobs at 40 uM GlcN6P; higher = faster cleavage; RNA array
In short: as §1

glucosamine-6-phosphate [4] = variants of: B1; assay: self-cleavage kobs at 160 uM GlcN6P; higher = faster cleavage; RNA array
In short: as §1

glucosamine-6-phosphate [5] = variants of: B1; assay: self-cleavage kobs at 640 uM GlcN6P; higher = faster cleavage; RNA array
In short: as §1

glucosamine-6-phosphate [6] = variants of: B1; assay: self-cleavage kobs at 2500 uM GlcN6P; higher = faster cleavage; RNA array
In short: as §1

glucosamine-6-phosphate [7] = variants of: B1; assay: self-cleavage kobs at 10000 uM GlcN6P; higher = faster cleavage; RNA array
In short: as §1

Row | Variant | kcat (glucosamine-6-phosphate [1]) [s⁻¹] | KM (glucosamine-6-phosphate [2]) [µM] | self-cleavage kobs at 40 uM GlcN6P (glucosamine-6-phosphate [3]) [s⁻¹] | self-cleavage kobs at 160 uM GlcN6P (glucosamine-6-phosphate [4]) [s⁻¹] | self-cleavage kobs at 640 uM GlcN6P (glucosamine-6-phosphate [5]) [s⁻¹] | self-cleavage kobs at 2500 uM GlcN6P (glucosamine-6-phosphate [6]) [s⁻¹] | self-cleavage kobs at 10000 uM GlcN6P (glucosamine-6-phosphate [7]) [s⁻¹]
1 | AUAAAAGCGCCAGAACUACAGAAAUGUAGUUGACGAGGCGGAGGUUUAUCGAAUUUUCGGCGGAUGCCUUCAAA [A39C C70U] | 0.000652 ± 0.00018 | 1210 ± 530 | 4.36e-05 ± 6.9e-06 | 7.31e-05 ± 9.7e-06 | 0.00019 ± 2.5e-05 | 0.000461 ± 8.2e-05 | 0.000616 ± 7.3e-05
2 | AUAAAAGCGCCAGAACUACAGAAAUGUAGUUGACGAGGCGGAGGUUUAUCGAAUUUUGGGCGGAUGCCUCCAAA [A39C C58G] | 1.1e-05 ± 2.2e-06 |  |  |  |  |  | 
3 | AUAAAAGCGCCAGAACUACAGAAAUGUAGUUGACGAGGCGGAGGUUUAUCAAAUUUUCGGCGGAUGCCUCCAAA [A39C G51A] | < 1e-05 |  |  |  |  | < 1e-05 | < 1e-05
4 | AUAAAAGCGCCAGAACUACAGAAAUGUAGUUGACGAGGCGGAGAUUUAUCGAAUUUUCGGCGGAUGCCUCCAAA [A39C G44A] | 3.56e-05 ± 1.2e-05 |  |  |  |  | 5.47e-05 ± 1.1e-05 | 2.63e-05 ± 8.1e-06
5 | AUAAAAGCGCCAGAACUACAGAAAUGUAGUUGACGAGGCGGAGGUUUAUCGAAUUUUCGGCGGAUGGCUCCAAA [A39C C67G] | 0.000391 ± 0.00014 |  | 2.13e-05 ± 7.7e-06 | 3.74e-05 ± 7.5e-06 | 8.41e-05 ± 7.6e-06 | 0.000216 ± 1.7e-05 | 
6 | AUAAAAGCGCCAGAACUACAGAAAUGUAGUUGACGAGGCGGAGGUUUAUCGAAUUGUCGGCGGAUGCCUCCAAA [A39C U56G] | 0.00414 ± 0.0013 | 4460 ± 1800 | 5.55e-05 ± 7.3e-06 | 0.000133 ± 1.4e-05 | 0.000539 ± 6.5e-05 | 0.00125 ± 0.00015 | 0.00322 ± 0.00035
7 | AUAAAAGCGCCAGAACUACAGAAAUGUAGUUGACGAGGCGGAGGUUUAUCGAAUCUUCGGCGGAUGCCUCCAAA [A39C U55C] | 0.00774 ± 0.0022 | 3010 ± 1100 | 0.000127 ± 1.4e-05 | 0.000325 ± 5e-05 | 0.00144 ± 0.00027 | 0.00268 ± 0.00051 | 0.0067 ± 0.00081
8 | AUAAAAGCGCCAGAACUACAGAAAUGUAGUUGACGAGGCGGAGGUCUAUCGAAUUUUCGGCGGAUGCCUCCAAA [A39C U46C] | 0.00261 ± 0.00017 | 2740 ± 280 | 3.41e-05 ± 9.8e-06 | 0.000168 ± 3.9e-05 | 0.000488 ± 6.6e-05 | 0.00122 ± 0.00023 | 0.00206 ± 0.00025
9 | AUAAAAGCGCCAGAACUACAGAAAUGUAGUUGACGAGGCUGAGGUUUAUCGAAUUUUCGGCGGAUGCCUCCAAA [A39C G40U] | 0.000135 ± 1.1e-05 | 1690 ± 480 |  |  | 5.01e-05 ± 1.7e-05 | 7.56e-05 ± 9.8e-06 | 0.000118 ± 1e-05
10 | AUAAAAGCGCCAGAACUACAGAAAUGUAGUUGACGAGGCCGAGGUUUAUCGAAUUUUCGGCGGAUGCCUCCAAA [A39C G40C] | 0.000145 ± 1.6e-06 | 1590 ± 47 |  |  | 4.2e-05 ± 9e-06 | 8.75e-05 ± 1.8e-05 | 0.000126 ± 1.5e-05
11 | AUAAAAGCGCCAGAACUACAGAAAUGUAGUUGACGAGGCGGAGGUUAAUCGAAUUUUCGGCGGAUGCCUCCAAA [A39C U47A] | 0.00575 ± 0.0015 | 4090 ± 1400 | 8.72e-05 ± 1.3e-05 | 0.000179 ± 2.3e-05 | 0.000865 ± 0.0001 | 0.0021 ± 0.00033 | 0.00409 ± 0.00043
12 | AUAAAAGCGCCAGAACUACAGAAAUGUAGUUGACGAGGCGGAGGUUUAUCGAAUUUUCGGCGGAUACCUCCAAA [A39C G66A] | 0.004 ± 0.00092 | 2860 ± 890 | 7.75e-05 ± 1.2e-05 | 0.000194 ± 3.3e-05 | 0.000666 ± 8.8e-05 | 0.00181 ± 0.00027 | 0.0033 ± 0.00049
13 | AUAAAAGCGCCAGAACUACAGAAAUGUAGUUGACGAGGCGGAGGAUUAUCGAAUUUUCGGCGGAUGCCUCCAAA [A39C U45A] | 0.0045 ± 0.001 | 1430 ± 550 | 0.000226 ± 5.6e-05 | 0.000456 ± 9.8e-05 | 0.00118 ± 0.0002 | 0.00392 ± 0.001 | 0.00397 ± 0.00058
14 | AUAAAAGCGCCAGAACUACAGAAAUGUAGUUGACGAGGCGGAGGCUUAUCGAAUUUUCGGCGGAUGCCUCCAAA [A39C U45C] | 0.000523 ± 3.8e-05 | 3080 ± 440 |  |  | 9.68e-05 ± 1.7e-05 | 0.000214 ± 3.8e-05 | 0.000408 ± 4.5e-05
